Assay results reported in paper PMC6297355.

Legend:
[1] = biological target: 5-carboxyfluorescein (5-FAM) labeled LVEALY tracer; experiment: fluorescence polarisation (Δmp read-out, fluorescent peptide tracer); conditions: 30 µM BAG3P209L; 30 µM BAG3WT; parent: est. 2; read off a plot
[2] = biological target: BAG3^WT (recombinant) (human) (UniProt O95817); experiment: ITC; NBD (100 μM) in the syringe titrated into 10 μM BAG3 in the cell; 25 mM HEPES, 5 mM MgCl2, 100 mM KCl, pH 7.5; 25 °C; one-site binding model
Chain of BAG3^WT (recombinant) (human) (O95817 whole entry): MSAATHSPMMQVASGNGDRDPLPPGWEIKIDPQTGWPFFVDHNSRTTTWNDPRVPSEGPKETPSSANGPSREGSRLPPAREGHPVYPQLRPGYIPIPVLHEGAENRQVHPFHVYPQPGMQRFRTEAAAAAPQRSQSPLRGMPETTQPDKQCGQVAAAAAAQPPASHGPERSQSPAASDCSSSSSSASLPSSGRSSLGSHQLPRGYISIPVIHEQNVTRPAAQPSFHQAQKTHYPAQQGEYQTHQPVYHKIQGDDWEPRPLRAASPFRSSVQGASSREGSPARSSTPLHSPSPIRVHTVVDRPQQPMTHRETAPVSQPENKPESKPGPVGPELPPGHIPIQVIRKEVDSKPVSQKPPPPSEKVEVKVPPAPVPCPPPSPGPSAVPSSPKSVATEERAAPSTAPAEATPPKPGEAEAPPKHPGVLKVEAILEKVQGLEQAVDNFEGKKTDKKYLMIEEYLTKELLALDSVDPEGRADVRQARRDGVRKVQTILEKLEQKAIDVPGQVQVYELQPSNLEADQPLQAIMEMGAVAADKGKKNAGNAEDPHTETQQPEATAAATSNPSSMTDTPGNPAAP

[3] = biological target: BAG3^P209L (recombinant) (human) (UniProt O95817); experiment: as above
Chain of BAG3^P209L (recombinant) (human) (O95817 whole entry P209L): as the sequence (O95817 whole entry) above, with P209L counted along it

Chain of BAG3^WT (recombinant), O95817 P209L (O95817 whole entry P209L): as the sequence (O95817 whole entry) above, with P209L counted along it

Row | response [1] | Kd [2] [nM] | Kd [3] [nM] | Substance
1 | 54 Δmp | – | – | BAG3^WT (recombinant), O95817 P209L
2 | – | 300 | 300 | HSPA8^NBD (nucleotide-binding domain of HSPA8) (domain or fragment)
